Target: His-tagged recombinant full-length HCV NS3 protein (aa 1027 to aa 1657 of the HCV polyprotein, 1b genotype), purified from E. coli (hepatitis C virus, 1b genotype)
Assay: cell-based or functional assay

B1: Human recombinant anti-NS3 Fab (HFab-aNS3) (Fab, V domains shown)
VH: LEESGGGLVKPGGSLRLSCVASGLTFSRYNMQWVRQAPGKGLEWVASISTSGVYIYYADSVTGRFTISRDNSKNSLYLQMNSLGAEDTAVYYCARDLTFLCGGDCLQPWGQG
VL: AELTQSPSSLSASVGDRVTITCRASQGISRYLAWFQQRPGKAPKSLIYAASHLQSGVPSRFSASGSGTEFTLSISSLQPEDFATYYCQQYDTYPYTFGQGTKLEIKR
  inhibition of NTPase activity: 15%
  inhibition of helicase activity: 54%

Reference: patent US7314919
